The numbers were not newly measured in doi:10.1101/2020.02.03.932012, which cites them from elsewhere.

Some targets named below: Lys66 (UniProt position 148, FTKKMKENAKK); Glu62 (UniProt position 144, EASAFEKKMVE); Glu66 (UniProt position 148, FTKKMEENAKK); Lys62 (UniProt position 144, EASAFKKKMVE).
Experiment in all cases: stability
Holding throughout (conditions): single buried-residue variants, ligand-free as far as stated

In general, pKa refers to the pH at which an ionisable group is half protonated. For “Staphylococcal nuclease Delta+PHS V66K (Staphylococcus aureus; G50F;V51N;P117G;H124L;S128A;del44-49;V66K)”, in the data set with Lys66, the pKa was 5.7. On to “Staphylococcal nuclease Delta+PHS T62E (Staphylococcus aureus; G50F;V51N;P117G;H124L;S128A;del44-49;T62E)”, for which the pKa with Glu62 is listed as 7.7. Regarding “Staphylococcal nuclease Delta+PHS V66E (Staphylococcus aureus; G50F;V51N;P117G;H124L;S128A;del44-49;V66E)”, the pKa in the data set with Glu66 was 8.5. On to “Staphylococcal nuclease Delta+PHS T62K (Staphylococcus aureus; G50F;V51N;P117G;H124L;S128A;del44-49;T62K)”, for which the pKa with Lys62 is 8.1.
